Assay results from PMC12678811.

Key:
[1] = target: secretin receptor (SCTR) (mouse (endogenous in mouse jejunal ICC-DMP)) (UniProt Q5FWI2)
[2] = target: secretin receptor (SCTR) (mouse (endogenous in mouse jejunal ICC-DMP)) (UniProt Q5FWI2); remark: listed apart in the source
[3] = target: secretin receptor (SCTR) (mouse (endogenous in mouse jejunal ICC-DMP)) (UniProt Q5FWI2); remark: listed apart in the source

Sequence of UniProt Q5FWI2 (Q5FWI2 29-447): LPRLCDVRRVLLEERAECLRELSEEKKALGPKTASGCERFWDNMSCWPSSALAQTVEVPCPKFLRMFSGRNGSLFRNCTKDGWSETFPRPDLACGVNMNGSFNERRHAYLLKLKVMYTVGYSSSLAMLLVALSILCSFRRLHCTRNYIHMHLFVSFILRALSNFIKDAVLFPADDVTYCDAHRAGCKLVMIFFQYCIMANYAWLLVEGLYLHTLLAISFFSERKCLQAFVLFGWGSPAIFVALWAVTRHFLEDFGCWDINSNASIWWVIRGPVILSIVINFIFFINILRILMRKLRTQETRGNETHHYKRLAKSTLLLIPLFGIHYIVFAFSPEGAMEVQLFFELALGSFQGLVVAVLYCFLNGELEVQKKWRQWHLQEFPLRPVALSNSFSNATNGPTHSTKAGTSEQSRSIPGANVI

B1: Secretin, human (peptide)
peptide: HSDGTFTSELSRLREGARLQRLLQGLV
With B1 the cAMP level in ICC-DMP, FRET ratio (mTurquoise/Venus) of the CAMPER sensor, secretin 100 nM [1] was 108 % of control, the Ca2+ transients in ICC-DMP (GCaMP6f), area of events, secretin 100 nM with TTX 1 uM [2] was 0.57 μm·s and the Ca2+ transients in ICC-DMP (GCaMP6f), spatial spread, secretin 100 nM with TTX 1 uM [2] was 3.1 μm. For the same binder, the contractions of murine jejunal muscle strips, amplitude, secretin 100 nM with TTX 1 uM [3] was 53.3 % of control, the contractions of murine jejunal muscle strips, area under the curve, secretin 100 nM with TTX 1 uM [3] was 46.4 % of control and the spontaneous contractions of murine jejunal muscle strips, area under the curve, secretin 100 nM, control conditions [3] was 45.6 % of control. For the same binder, the spontaneous contractions of murine jejunal muscle strips, contractile amplitude, secretin 100 nM, control conditions [3] was 61.3 % of control.
